Key:
[1] = molecular target: LiRAD51^ATPase (Leishmania infantum RAD51 ATPase domain, residues 134–386) (Leishmania infantum); test: fluorescence polarisation; competition: 5 nM Fluor-NCys-LiBRC1 probe with 500 nM LiRAD51^ATPase, GB1-LiBRC repeats in serial dilutions; KD estimated from the fitted IC50; 50 mM Tris pH 8.0, 150 mM NaCl, 100 mM Li2SO4, 1% BSA, 0.1% Tween-20
[2] = molecular target: Fluor-NCys-LiBRC1 probe (Leishmania infantum); test: fluorescence polarisation; direct titration: LiRAD51^ATPase in two-fold serial dilutions into 5 nM Fluor-NCys-LiBRC1 probe; 50 mM Tris pH 8.0, 150 mM NaCl, 100 mM Li2SO4, 1% BSA, 0.1% Tween-20
[3] = molecular target: LiRAD51^ATPase (Leishmania infantum RAD51 ATPase domain, residues 134–386) (Leishmania infantum); test: ITC; LiBRC1 peptide in the syringe, LiRAD51^ATPase in the cell; 25°C; 20 mM Tris pH 8.0, 150 mM NaCl, 100 mM Li2SO4; single-site binding model

Kd [1]	Substance	also measured
10.1 µM	LiBRC1.10 (C-terminal truncation of LiBRC1, Val131 also removed, GB1 fusion) (domain or fragment)	–
0.39 µM	LiBRC1.7 (C-terminal truncation of LiBRC1, residues up to Arg134 removed, GB1 fusion) (domain or fragment)	–
0.29 µM	GB1-LiBRC1-His8 (BRC repeat 1 of Leishmania infantum BRCA2 fused to GB1) (domain or fragment)	–

The next lines start with the substance.

Substance	Kd [1]	also measured
LiBRC1.11 (C-terminal truncation of LiBRC1 up until Gln129, GB1 fusion) (domain or fragment)	8.7 µM	–
LiBRC1.8 (C-terminal truncation of LiBRC1, Glu133 also removed, GB1 fusion) (domain or fragment)	2.09 µM	–
LiRAD51^ATPase (Leishmania infantum RAD51 ATPase domain, residues 134–386) (domain or fragment)	–	Kd [2]: 0.165 µM
LiBRC1 free peptide	–	Kd [3]: 0.65 µM
LiBRC2.1 (LiBRC2 Gly154 to alanine, GB1 fusion) (domain or fragment)	10.6 µM	–
